This is an account of results in patent publication US20140087995A1 (published 2014).

For test [1], the target named is T1, human amylin receptor (amylin 3(a) receptor: human calcitonin receptor plus RAMP-3) (human, UniProt P30988 25-474; O60896 24-148, limits assumed).
T1 sequence (looked up) 1: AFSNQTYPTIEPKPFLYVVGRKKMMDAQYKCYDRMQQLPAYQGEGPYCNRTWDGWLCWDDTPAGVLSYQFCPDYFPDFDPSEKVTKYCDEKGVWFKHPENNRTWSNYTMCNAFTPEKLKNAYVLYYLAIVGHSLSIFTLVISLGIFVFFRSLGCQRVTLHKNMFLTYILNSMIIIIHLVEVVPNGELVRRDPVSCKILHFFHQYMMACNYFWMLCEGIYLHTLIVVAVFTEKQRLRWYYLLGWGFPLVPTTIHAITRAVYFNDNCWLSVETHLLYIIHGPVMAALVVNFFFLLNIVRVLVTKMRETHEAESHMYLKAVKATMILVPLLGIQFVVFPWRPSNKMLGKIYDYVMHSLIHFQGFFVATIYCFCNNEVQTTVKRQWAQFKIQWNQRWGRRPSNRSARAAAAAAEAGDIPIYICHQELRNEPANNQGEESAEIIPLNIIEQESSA
T1 sequence (looked up) 2: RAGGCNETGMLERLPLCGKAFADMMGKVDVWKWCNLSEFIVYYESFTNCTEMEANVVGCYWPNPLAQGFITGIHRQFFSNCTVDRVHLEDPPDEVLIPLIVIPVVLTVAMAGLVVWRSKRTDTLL
In words: cell-based or functional assay.

In test [2] the target is T2, human calcitonin receptor (human, UniProt P30988 25-474).
T2 sequence (looked up): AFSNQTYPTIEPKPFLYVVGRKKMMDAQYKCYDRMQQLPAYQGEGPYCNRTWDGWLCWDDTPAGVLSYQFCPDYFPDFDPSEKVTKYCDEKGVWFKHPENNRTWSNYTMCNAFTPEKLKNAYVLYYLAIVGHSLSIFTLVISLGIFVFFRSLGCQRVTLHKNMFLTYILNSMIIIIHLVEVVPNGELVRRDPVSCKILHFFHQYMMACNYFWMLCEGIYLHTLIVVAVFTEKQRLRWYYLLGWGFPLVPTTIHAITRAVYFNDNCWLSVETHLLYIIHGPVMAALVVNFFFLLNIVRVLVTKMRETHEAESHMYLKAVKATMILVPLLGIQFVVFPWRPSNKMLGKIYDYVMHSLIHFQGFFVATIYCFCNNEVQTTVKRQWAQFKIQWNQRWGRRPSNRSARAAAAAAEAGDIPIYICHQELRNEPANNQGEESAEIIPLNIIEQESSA
The experiment in a line: cell-based or functional assay.

In test [3] the target is T1, human amylin receptor (amylin 3(a) …). The experiment in a line: SPA competition binding, membranes of Amylin 3(a)/CRE-luc BHK cells, displacement of 125I-rat amylin (Assay V). As to the method: The binding assay was performed using scintillation proximity assay (SPA) beads (RPNQ0001) from PerkinElmer and cell membranes from the Amylin 3(a)/CRE-luc cells (as described in Assay (II)) were used. Membranes were prepared in the following way; the cells were rinsed with PBS and incubated with Versene for approximately 5 min before harvesting. The cells were flushed with PBS and the cell-suspension was centrifuged for 5 min at 1000 rpm. Cells were homogenized (ultrathurrax) in a buffer containing 20 mM Na-HEPES and 10 mM EDTA (pH 7.4) and centrifuged at 20.000 rpm for 15 min. The resulting pellet was resuspended, homogenized and centrifuged (20.000 rpm, 15 min) in a buffer containing 20 mM Na-HEPES and 0.1 mM EDTA (pH 7.4, buffer 2). The resulting pellet was resuspended in buffer 2 and protein concentration was measured (BCA protein Assay, Pierce). The homogenate was kept cold during the whole procedure. The membranes were kept at −80° C. until use. The assay was performed in a 384 well Optiplate (PerkinElmer) in a total volume of 40 ul. Membranes were mixed with SPA beads. Final concentration of membranes 35 ng/μL final and SPA beads was 0.05 mg/well. Test-compounds were dissolved in DMSO and further diluted in assay buffer (50 mM Hepes, pH 7.4, 1 mM CaCl2, 5 mM MgCl₂, 0.1% OA and 0.02% Tween20). […] The final mixture was incubated with shaking at 400 rpm for 120 min at 25° C. prior to centrifugation (1500 rpm, 10 min). Samples were analyzed on TopCounter™ (Packard). The IC₅₀ was calculated using (one site binding competition analysis) GraphPad Prism5 as a measure of receptor affinity.

For test [4], the target named is T3, human amylin receptor (human calcitonin receptor co-expressed with RAMP-3; amylin 3(a) receptor) (human, UniProt P30988 25-474; O60896 24-148, limits assumed).
T3 construct: whole, on cells; Used as cell membranes prepared from Amylin 3(a)/CRE-luc BHK cells (Assay V), not as intact cells; also called hAmylin-R; hAmylinR
T3 sequence (looked up) 1: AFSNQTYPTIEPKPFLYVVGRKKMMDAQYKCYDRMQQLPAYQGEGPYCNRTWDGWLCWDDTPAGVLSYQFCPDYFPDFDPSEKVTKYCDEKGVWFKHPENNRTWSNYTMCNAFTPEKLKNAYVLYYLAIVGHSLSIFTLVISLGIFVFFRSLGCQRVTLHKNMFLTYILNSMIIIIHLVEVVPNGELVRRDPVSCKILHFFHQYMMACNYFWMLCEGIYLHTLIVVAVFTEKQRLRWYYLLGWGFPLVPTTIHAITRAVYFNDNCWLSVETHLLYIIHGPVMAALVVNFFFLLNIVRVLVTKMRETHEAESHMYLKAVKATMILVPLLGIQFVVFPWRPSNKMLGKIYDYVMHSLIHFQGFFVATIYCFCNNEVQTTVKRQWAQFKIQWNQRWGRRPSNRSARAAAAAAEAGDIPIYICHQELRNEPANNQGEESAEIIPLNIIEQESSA
T3 sequence (looked up) 2: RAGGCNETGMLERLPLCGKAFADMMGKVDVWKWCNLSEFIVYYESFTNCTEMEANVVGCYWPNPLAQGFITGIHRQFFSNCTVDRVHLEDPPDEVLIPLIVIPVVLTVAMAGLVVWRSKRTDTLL
The experiment in a line: ratio of hCTR binding IC50 to hAmylin-R binding IC50 (reference: human calcitonin receptor). The method, boiled down:
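Competition binding by SPA uses membrane preparations (35 ng/μL final) in pH 7.4 Hepes buffer with 1 mM CaCl2 and 5 mM MgCl₂. Incubation lasts 120 min at 25° C, and IC₅₀ comes from one-site fitting.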

For test [5], the target named is T4, human calcitonin receptor (human, UniProt P30988 25-474).
T4 construct: whole, on cells; Used as cell membranes prepared from the transfected BHK cells (Assay VII), not as intact cells; also called hCTR; hCT
T4 sequence (looked up): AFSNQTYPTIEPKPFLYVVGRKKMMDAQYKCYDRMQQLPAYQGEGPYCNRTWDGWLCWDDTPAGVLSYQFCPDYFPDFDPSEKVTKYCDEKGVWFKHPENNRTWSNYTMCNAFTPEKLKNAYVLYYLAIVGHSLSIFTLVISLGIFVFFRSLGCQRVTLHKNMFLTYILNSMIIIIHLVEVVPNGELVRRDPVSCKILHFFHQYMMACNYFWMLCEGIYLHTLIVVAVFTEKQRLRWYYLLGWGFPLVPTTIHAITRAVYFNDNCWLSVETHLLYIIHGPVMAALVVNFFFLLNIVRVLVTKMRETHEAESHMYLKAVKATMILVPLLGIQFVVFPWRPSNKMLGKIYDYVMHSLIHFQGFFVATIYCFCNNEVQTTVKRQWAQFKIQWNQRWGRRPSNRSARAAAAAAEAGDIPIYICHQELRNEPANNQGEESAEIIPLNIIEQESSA
The experiment in a line: SPA competition against 125I-calcitonin, membranes with human calcitonin receptor (Assay VII). In a few lines:
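BHK hCTR membranes 35 ng/μL + SPA beads 0.05 mg/well; buffer 50 mM Hepes pH 7.4, 1 mM CaCl2, 5 mM MgCl₂, 0.1% OA, 0.02% Tween20. 120 min, 25° C., shaking. Scintillation count; IC50 by one-site binding competition.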

Numbered stars: 1 amine (or outer) side, 2 acyl side, 3 side chain; on linkers, the order of the positions; unused ones are H or OH. Bridge positions count the residues as written; N and C are the ends. Side chains are listed from the residue outwards. Ends that are not written are not given here. * marks the point of attachment. C20 diacid = O=C(O)CCCCCCCCCCCCCCCCCCC(=O)*; γGlu = O=C(O)[C@H](CCC(=O)[*:2])N[*:1]

B1: N^α1-[(4S)-4-carboxy-4-(19-carboxynonadecanoylamino)butanoyl]-[Arg17,Pro21,Pro27,Lys35]-h-amylin (peptide)
peptide: KCNTATCATQRLANFLRHSSPNFGAIPSSTNVGSKTY
modifications: C20 diacid-gGlu on the alpha amino group of the N-terminal residue; Cys2-Cys7 disulfide and C-terminal amide as in human amylin
notes: also called compound 34
The IC50 is the concentration that gives 50% inhibition. In the case of B1, the “hAmylin-R funct. EC50” value in test [1] stood at 0.313 nM. In addition, in test [2], the “Ratio hCT/hAmylin funct. (hCTR EC50 against hAmylin-R EC50)” value came to 8.4 and the “hCTR funct. EC50” value came out at 2.62 nM. Also, in test [3], the IC50 was determined as 1.14 nM.

B2: N^ε1-[(4S)-4-carboxy-4-(19-carboxynonadecanoylamino)butanoyl]-[His14,Arg17,Pro21,Pro27,His35]-h-amylin (peptide)
peptide: K([γGlu-C20 diacid])CNTATCATQRLAHFLRHSSPNFGAIPSSTNVGSHTY-NH2
modifications: disulfide 2-7; N-terminus assumed
SMILES: CC[C@H](C)[C@H](NC(=O)[C@H](C)NC(=O)CNC(=O)[C@H](Cc1ccccc1)NC(=O)[C@H](CC(N)=O)NC(=O)[C@@H]1CCCN1C(=O)[C@H](CO)NC(=O)[C@H](CO)NC(=O)[C@H](Cc1c[nH]cn1)NC(=O)[C@H](CCCNC(=N)N)NC(=O)[C@H](CC(C)C)NC(=O)[C@H](Cc1ccccc1)NC(=O)[C@H](Cc1c[nH]cn1)NC(=O)[C@H](C)NC(=O)[C@H](CC(C)C)NC(=O)[C@H](CCCNC(=N)N)NC(=O)[C@H](CCC(N)=O)NC(=O)[C@@H](NC(=O)[C@H](C)NC(=O)[C@@H]1CSSC[C@H](NC(=O)[C@@H](N)CCCCNC(=O)CC[C@H](NC(=O)CCCCCCCCCCCCCCCCCCC(=O)O)C(=O)O)C(=O)N[C@@H](CC(N)=O)C(=O)N[C@@H]([C@@H](C)O)C(=O)N[C@@H](C)C(=O)N[C@@H]([C@@H](C)O)C(=O)N1)[C@@H](C)O)C(=O)N1CCC[C@H]1C(=O)N[C@@H](CO)C(=O)N[C@@H](CO)C(=O)N[C@H](C(=O)N[C@@H](CC(N)=O)C(=O)N[C@H](C(=O)NCC(=O)N[C@@H](CO)C(=O)N[C@@H](Cc1c[nH]cn1)C(=O)N[C@H](C(=O)N[C@@H](Cc1ccc(O)cc1)C(N)=O)[C@@H](C)O)C(C)C)[C@@H](C)O
notes: also called compound 66
B2: the “Ratio hCT/hAmylin binding” value in test [4] came out at 45.5. Besides, the IC50 in test [5] amounted to 18 nM.

B3: N^ε1N^ε1-[(4S)-4-carboxy-4-(19-carboxynonadecanoylamino)butanoyl]-[His14,Arg17,Pro21,Pro27,Pro34]-h-amylin (peptide)
peptide: K([γGlu-C20 diacid])CNTATCATQRLAHFLRHSSPNFGAIPSSTNVGPNTY-NH2
modifications: disulfide 2-7; N-terminus assumed
SMILES: CC[C@H](C)[C@H](NC(=O)[C@H](C)NC(=O)CNC(=O)[C@H](Cc1ccccc1)NC(=O)[C@H](CC(N)=O)NC(=O)[C@@H]1CCCN1C(=O)[C@H](CO)NC(=O)[C@H](CO)NC(=O)[C@H](Cc1c[nH]cn1)NC(=O)[C@H](CCCNC(=N)N)NC(=O)[C@H](CC(C)C)NC(=O)[C@H](Cc1ccccc1)NC(=O)[C@H](Cc1c[nH]cn1)NC(=O)[C@H](C)NC(=O)[C@H](CC(C)C)NC(=O)[C@H](CCCNC(=N)N)NC(=O)[C@H](CCC(N)=O)NC(=O)[C@@H](NC(=O)[C@H](C)NC(=O)[C@@H]1CSSC[C@H](NC(=O)[C@@H](N)CCCCNC(=O)CC[C@H](NC(=O)CCCCCCCCCCCCCCCCCCC(=O)O)C(=O)O)C(=O)N[C@@H](CC(N)=O)C(=O)N[C@@H]([C@@H](C)O)C(=O)N[C@@H](C)C(=O)N[C@@H]([C@@H](C)O)C(=O)N1)[C@@H](C)O)C(=O)N1CCC[C@H]1C(=O)N[C@@H](CO)C(=O)N[C@@H](CO)C(=O)N[C@H](C(=O)N[C@@H](CC(N)=O)C(=O)N[C@H](C(=O)NCC(=O)N1CCC[C@H]1C(=O)N[C@@H](CC(N)=O)C(=O)N[C@H](C(=O)N[C@@H](Cc1ccc(O)cc1)C(N)=O)[C@@H](C)O)C(C)C)[C@@H](C)O
notes: also called compound 67
Regarding B3, the “Ratio hCT/hAmylin binding” value in test [4] was 51.6. Besides, the IC50 in test [5] came to 4.63 nM.

B4: N^ε1-[(4S)-4-carboxy-4-(19-carboxynonadecanoylamino)butanoyl]-[His14,Arg17,Pro21,Pro27,Pro31]-h-amylin (peptide)
peptide: K([γGlu-C20 diacid])CNTATCATQRLAHFLRHSSPNFGAIPSSTPVGSNTY-NH2
modifications: disulfide 2-7; N-terminus assumed
SMILES: CC[C@H](C)[C@H](NC(=O)[C@H](C)NC(=O)CNC(=O)[C@H](Cc1ccccc1)NC(=O)[C@H](CC(N)=O)NC(=O)[C@@H]1CCCN1C(=O)[C@H](CO)NC(=O)[C@H](CO)NC(=O)[C@H](Cc1c[nH]cn1)NC(=O)[C@H](CCCNC(=N)N)NC(=O)[C@H](CC(C)C)NC(=O)[C@H](Cc1ccccc1)NC(=O)[C@H](Cc1c[nH]cn1)NC(=O)[C@H](C)NC(=O)[C@H](CC(C)C)NC(=O)[C@H](CCCNC(=N)N)NC(=O)[C@H](CCC(N)=O)NC(=O)[C@@H](NC(=O)[C@H](C)NC(=O)[C@@H]1CSSC[C@H](NC(=O)[C@@H](N)CCCCNC(=O)CC[C@H](NC(=O)CCCCCCCCCCCCCCCCCCC(=O)O)C(=O)O)C(=O)N[C@@H](CC(N)=O)C(=O)N[C@@H]([C@@H](C)O)C(=O)N[C@@H](C)C(=O)N[C@@H]([C@@H](C)O)C(=O)N1)[C@@H](C)O)C(=O)N1CCC[C@H]1C(=O)N[C@@H](CO)C(=O)N[C@@H](CO)C(=O)N[C@H](C(=O)N1CCC[C@H]1C(=O)N[C@H](C(=O)NCC(=O)N[C@@H](CO)C(=O)N[C@@H](CC(N)=O)C(=O)N[C@H](C(=O)N[C@@H](Cc1ccc(O)cc1)C(N)=O)[C@@H](C)O)C(C)C)[C@@H](C)O
notes: also called compound 62
In the case of B4, the “Ratio hCT/hAmylin binding” value in test [4] was found to be 63. Also, the half-inhibitory concentration (IC50) in test [5] was 6.17 nM.
